We go through 2 molecules from patent publication US20200282017A1 (CLEVELAND CLINIC FOUNDATION, published 2020).

In test [1] the target is T1, E. coli (K12) FimH, wild type, on the surface of E. coli (Escherichia coli (K12), UniProt P08191 22-300).
T1 construct: whole, on cells; also called FimH-WT; fimbrial protein H
As to the kind of experiment: flow cytometry of FimH+ or FimH- E. coli (K12) treated with Box A protein and stained with anti-HIS antibody.

Test [2] concerns the target T1, E. coli (K12) FimH, wild type, on the …. The experiment in a line: immunofluorescence microscopy of E. coli +/- FimH exposed to recombinant HMGB1, stained with anti-HMGB1 antibody.

T1 sequence (P08191 22-300): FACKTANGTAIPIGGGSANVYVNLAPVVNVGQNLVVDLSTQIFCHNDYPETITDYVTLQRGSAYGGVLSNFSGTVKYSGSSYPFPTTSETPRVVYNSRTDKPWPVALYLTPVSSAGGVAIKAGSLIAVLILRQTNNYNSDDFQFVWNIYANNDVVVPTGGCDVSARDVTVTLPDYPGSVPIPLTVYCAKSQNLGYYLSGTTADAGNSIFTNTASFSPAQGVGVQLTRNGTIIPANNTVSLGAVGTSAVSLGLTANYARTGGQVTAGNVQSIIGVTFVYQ

B1: Box A protein, truncation mutant composed of aa 2-97 of HMGB1 (other)
chain: GKGDPKKPRGKMSSYAFFVQTCREEHKKKHPDASVNFSEFSKKCSERWKTMSAKEKGKFEDMAKADKARYEREMKTYIPPKGETKKKFKDPNAPKR
notes: The position of the His tag is unknown; also called Box A from HMGB1; not shown: His tag implied by detection with anti-HIS antibody
In the case of B1, the binding result in test [1] is “binds”.

B2: High mobility group box 1 (HMGB1), recombinant human HMGB1 produced in mammalian cells (other)
chain: MGKGDPKKPRGKMSSYAFFVQTCREEHKKKHPDASVNFSEFSKKCSERWKTMSAKEKGKFEDMAKADKARYEREMKTYIPPKGETKKKFKDPNAPKRPPSAFFLFCSEYRPKIKGEHPGLSIGDVAKKLGEMWNNTAADDKQPYEKKAAKLKEKYEKDIAAYRAKGKPDAAKKGVVKAEKSKKKKEEEEDEEDEEDEEEEEDEEDEDEEEDDDDE
notes: also called recombinant HMGB1; full-length HMGB1 protein
Turning to B2, the binding result in test [2] is “binds”.
